Measured values: article PMC11438962

Target: biotin-labeled HNRNPA1 peptide carrying R194 symmetric dimethylation (SDMA)
Assay: BLI; Octet-RED96; biotinylated R194 SDMA HNRNPA1 peptide immobilised on streptavidin biosensors at 10 µg/mL; ZMYND11-MYND serially diluted three-fold from 333 nM in PBST; 300 s association, 300 s dissociation; 1:1 binding model

- Kd: 3.5 nM
Substance: His-tagged recombinant MYND domain of ZMYND11 (domain or fragment)
